Assay results reported in patent US20120253023A1.

Target: T1, amylin receptor (rat), P32214
T1 chain 1: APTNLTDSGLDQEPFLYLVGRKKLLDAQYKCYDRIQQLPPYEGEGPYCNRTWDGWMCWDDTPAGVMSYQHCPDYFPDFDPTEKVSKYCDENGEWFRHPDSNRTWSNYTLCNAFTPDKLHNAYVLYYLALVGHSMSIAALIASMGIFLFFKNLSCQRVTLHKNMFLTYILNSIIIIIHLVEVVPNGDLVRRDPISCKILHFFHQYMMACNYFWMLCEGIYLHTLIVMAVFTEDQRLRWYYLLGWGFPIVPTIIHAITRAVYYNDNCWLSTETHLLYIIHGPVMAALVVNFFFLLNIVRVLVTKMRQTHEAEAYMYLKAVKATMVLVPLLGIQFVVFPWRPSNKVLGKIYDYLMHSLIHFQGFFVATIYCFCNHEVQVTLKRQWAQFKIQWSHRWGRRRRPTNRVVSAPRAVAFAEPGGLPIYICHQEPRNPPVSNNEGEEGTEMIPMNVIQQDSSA
T1 chain 2: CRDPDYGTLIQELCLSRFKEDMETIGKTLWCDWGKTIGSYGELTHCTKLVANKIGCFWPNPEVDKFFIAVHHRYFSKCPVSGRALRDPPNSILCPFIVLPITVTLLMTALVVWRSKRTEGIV

IC50: 0.083 nM
Binder: DFMGWMDFGKRKCNTATCATQRLANELVRLQTYPRTNVGSNTY (modifications not checked) [DF(P-CH2SO3)… …]
